Measurements reported in the domain aggregation screens of Martell et al. (2025).

Test: soluble fraction after stress (log2 fold change); higher = more stays soluble; pooled small domains, quantitative proteomics
Settings: stress: 50 degC
In short: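 The stress applied to every library was 50°C. These custom libraries of small protein domains were pooled and measured at high throughput with quantitative proteomics as the read-out. Aggregation propensity is expressed as the base-two logarithm of the fold change in how much of each protein remains soluble. The higher the value, the more of that protein stays in solution.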

Sequence | soluble fraction (log2)
HMGTTTPPATRKGKVTSSFLNVRSGPSTANAKVAELKQNAVVTIYETSSNGWHRIGVNQWVIGTNIQE | -0.441
HMGQNYTIVKGDSLWKIAQKQYGDGSQWKKIYDANKDAIESAAKKYGKKSSDSGKWIYPGVSLII | 0.0704
HMKALEGMRTVFTLADLATEPVTVEITVLEAFKYTTTLEIVQRPVLREWMTNPSMLIRVYHDASTAE | 0.144
HMLPLIEVPAVTGKYLTKAKSALKDAGLDTGDIKRVEHEEHGENYVLKQDPPAGTKVPFGTTVSLTVVAP | 0.35
HMIAWNFDTMKESLSEMERVDYQEFIKAFLSLELSISDRTILNQVYQDYMDEDDLSLISDELRV | 0.0819
HMDSNISVSEALEMVDKGSVKEIIVEGEKLYITNQDGKQYTSSKEVGVSLIELMKDSGIDPIKSDVNIIVK | 0.214
HMPLSDAEKAAAIATQAKERALKLSPEMISYLLRHASRDMRTLSMLVVALDQYTLEQKRPVTLPLLRELLS | -0.098
HMANVQLAKNLKTLRKKYNYTQQDVSTFLNITRQAYSHYEQALREPDLNTLVHLSRFYQVTLDELI | -3.8
HMQRDELRYDQFLTALQNKEFTQLNVRFDDYTYLVTGTFQSGRPFSTRGPVSEEFIRLIESSGVQVTWLPM | -0.577
HMKDASEFLGAKGKTITPLRPTGAAVINGEKVDVLAEGEFIPKNAEIVVIKVEGSKIIVRNANN | 0.143
HMRMLLKELLIQYEVKNDKSHVEVAKEVGVSLSTYYRWLNGESLHLKKRTIDRLSEVLHYDINQVVEES | -2.35
HMITVPKVINMSETQARQTLDALGLNVTLSATQVMNDKIPYGYVAAQSYSAGKEVPAGTTIELTMSIGL | -0.945
HMKTYEILFDILSRESDYISGEKLAQELGISRTSIWKAIQHLEKEGVHIESVKNKGYKLLSGDLLIAEKI | -1.14
HMTFFDDLLYQAKAAVDNDPSIKPSLHNRAIIEILYQQGVFNMKNAVEHVAELLEISKNTVYLHLRSVKG | -0.973
HMRPDDPYLVIGASREMGDEELKRHYRRLVAETHPDRGIARGLPAEAIAIATRRLAAINAAWDAIERERGL | 0.035
HMGGEKLPAPVAGTLLRYSVAEGARVSEGQTVIILESMKMELEINTPKAGVIHFLAAVGAQVAEGDTLAEI | -1.82
HMSTSIADNSSITYKVRKGDSLASIAKRHGVNINDVMRWNSVITKASQIQPGDMLTLYVRDS | 0.026
HMANYHDIAADLRSKINHGFYEEEKKLPKQSELAADYQTSRVTIQKALNILQMEGIIYGKKGTGTFIRDSY | -0.214
HMDDGNHTEYIVLEKAKFYDEAGEYEEGRDLVLSFDKYQDNWKLVYTLGVFNKKLNNLEEARKYYKQALE | -0.0519
HMVADEGELLAIAREVVAANPKVFEDWKAGKQSAAQWFVGQIMKRTRGRANPQLALKLVTQALEEHAR | 0.0775
HMQDTYLYPVQHNGKVRLQVELPAKGLPEDLVRLALAHPKVVEWLNGRIPTKTIAVPGRIINMVLPNQ | -0.134
HMLPFGHTRLEDGTIQEIPEQIALARKVAEMYKAGFPVMQISIKTEGLLTPRQIYGLMNHWGVKR | -1.24
HMHFENEETFVLPLVREGFSEQQQLEMVDRLLFDANTDNPRWIIDWMASELPSTQRELLLDLEKRLAEVRS | -0.117
HMLMNADVLVKYQEDHWIVISEKASQASDTFDKKEQAVERAKEIAKNKNSSVKVYKQDGTLQDTFDYS | 0.122
HMLSAEAAAARTAISTLSEDQQRVLGLSIQRGLVHEQIARATGLPLGTVKTHIRRGLIKVREALEAQAAG | -0.00728

Sequence | soluble fraction (log2)
HMDEFEEGVITYFNSEKGFGFIRESKTKQSVFVHSKQLSSPVQLNDKVKFIVNKGLKGLEATEVSVI | -0.235
HMQQEAVSGKLLQLDLAKKEGRLSTDLGREVLFHIPKPELFVHLSVGQRIIIKLDAGQEAVGV | -0.0409
HMKTYGGDNSLHKFDEHHSWMVAKYGPVVKQTINGETKWLKVKKDLTLAQVKKMKLEDVLLPKSQT | -0.152
HMDTSKIDYSEFITMLDKGEVESVVLKSDTLTVTLKHGTGMAAQTKTVTLMEDLSELTKRLEKAGVKSFDK | 0.306
HMSPIKAGDLVKITGTKYYRGQTIPSWVKAKNWFVHSVSGDRAVINKSEDGKNAIMSPVKVSNLALVT | -0.0334
HMNGEDVTDAIRLPQISQYASVVSAYPGVRAFLLEMQRDFARKGSVIMDGRDIGTVVLPEAEVKIFLT | -0.025
HMRTMRHLSVPRQETQQILSQLKAEFALPQGARVQPDPSDSKRTLIPVKEGAESELLSRYPVVHAEP | 0.0847
HMKKSRLHSVLEEIPGIGEKRRKILIKHFGTVEAIKKSSLEELARIKGMNRRAAQNVLEYLK | -0.0583
HMQRSVEDVFVQLRNGMDTYDMTQIEDALRILHGMELSTAQRDLLDKVQEAYNDLEYETGAALLAGFERIK | 0.0317
HMIDELLDPTHRIMVRHPRVDYVSPGFLIGPDKDVILWGFTGGIIARLFDFLGWTRPWDQSHVQDLPPYML | -0.202
HMTSPVEDLLDKAIQLYREENFEEAIAKWEEVLALDPSKLEAKFNIEIAQDRIKEKQIQEDLKSS | 0.0629
HMSAMSPTEVGERLRLAREAVRMTQKQAADAISVARTTLVAIEQGQRRVRIDELQQLAKTYGVSVNAILR | -0.757
HMTKQRSIILDLLKANQDRHLTAEEMLELLNQNHTPVSKATLYRYLDMLVSQNAVRKFIIDDQPSAGYQYL | -1.34
HMGQVFEGTFNRKANGKNSVTPAEGGEPVFIAERNSLHAMNGDLVKVSLLAKKKHQPREAQVIEILKRSD | 0.144
HMSSVGELEVGNIFEGTVNSVRGGKVLLALGNGQMVLAQMDGRVNITPGSSMFFQVKSNDGETVAIRPYTG | -0.133
HMDELPKDILRSFGLPDKPWAMELLRNLRRDGFALDGETARAYAEMAAMKPPRTDARQWMTAADVAYRRG | -0.151
HMNAKNPRALAIQYVFKMQMGNFLHAKTDNQQQEQERIMTLFNEENKNTILPRWGKELLSYINRN | -0.695
HMRVDLVQRLARHGLSPRQSAVAGGVLRGLDNGEISRQLYIAEQTVKDHLHEIYHRLGVHTRTELLIKVLG | -1.6
HMDSSALEPIVDQIIADNPKQVEQFQAGKTKVLGFFVGQVMKQTDGTANPKQVNELVAARLKSA | 0.181
HMIQLKEHDVVRLRETIVENDEKIPAGTRGVVLSVYDGGRAFAVEVADDRAASAIITAFRDQLEVY | -0.136
HMSSEPASLVGKTGVAASVLRPSGRVEVNGEYYDAVSINGFIEKGESVFVHKYENAQLYVSKNSE | 0.0445
HMDDLSPEENKVIGAQVREELARRRLSRQHLADKAKISLSTLEKALTGTRPFTLASVVRIEEALQLQLRK | -0.484
HMVEPTDFTYLKAEVETAKALKQADYTVATWKSFAGELAEAEEVIAKTDASQAEVNEALSHLQAAEKELV | 0.175
HMASGLITEEQAKSKALAHAGLSASQVNFIWVKQDWEDGRRVYEVEFYTDDYQEYDYEIDARTGEILSFDY | -1.97
HMALSTRERMSFVLEVLKEKEFIPFVDLFSPEEGRAGVVVTFLALMELMKDSLIEIVQTKNFGEIHVRARL | -0.218

Sequence | soluble fraction (log2)
HMELSSRQAMIVDIVRKYEPITSEQIADKLNLTRSALRPDLAVLTMIGILEARPRVGYFFTGK | 0.141
HMRAVEGKRLKRLLRTNLIAIERDQILQYPLRKRPLAIVTRAVRATNPDAVIVNDAGDDVFARALDVLLAS | -1.34
HMRNDIFDQLTEREMQILQEVAKGYRNKQIADHLFISESTVKVHMKSLLKKLQVPSRTAATVLYLERYG | -1.66
HMNKNQIGTNAGIVWKLLSDNVHWEYDKLKHASGLSDRDLNAAIGWLAREDKIDFDIDEQHDRLFL | -0.395
HMRQSSLRTRELLIDAARQLFARFGVEKTTMNDIAEASKRGRRTVYMYFNSKSDVFYAVVGRE | -0.212
HMKMNFNEEEQKLLSEANVLVETNKTYTDDEVKGFSNKIVEHIMTFSKTDIPKVKSKFDPILFKI | -0.244
HMISINVIGEMISGSYGNTPFSRTYEKDIYEQMVKLSDDADQAQTVEEYNKILAEFSLLTTEDLK | -0.698
HMEEIIPIRFLRHRVKRRETIFGLTQKYNITEDQLKRYNTRLYSEALERKMVLQIPVFPEVDED | -2.31
HMLQIADEYLDRLQALFEDVRDNHFAIGDLLVELVDMHDSRRVDVINYIAGRLAISPTTLYDYENTARR | -0.792
HMKDEHYLYIKARVDNGDYPHLSELKSAEEIELVMPKLLQDGIVEFNKETGEYTIGEDVKAEIERL | 0.108
HMSALTDQQQRVLELVASGLVYKEVAAALSISEPTVKYHMGNILTRLHVKNRAQAIAAARQQGLL | -1.21
HMHPDALTEREREVLSLLADGLSNREIAARLVLALGTVKWYISVIYSKLGVTRRTQAIARARELHLV | -0.0971
HMNPIDAHVGARVRLRRMLIGMSQEKLGELLGVTFQQIQKYEKGANRIGASRLYEVSRVLDVPVQYFFDDM | -3.47
HMKDGMRVYITYHDSEEEPEKPIGDGTTKGWHTNSTASVVWISQKVAESADLGIWGDPIRIKGEA | -0.14
HMNETNKMPNLVNQTDSSAIAQLNAMELGLKITTKEESSETVLAGYVIRTEPAADTELTKNQAVTVYVS | 0.00616
HMNFEIEVTENGKRIDSYLAEELDLSRSKVQKLIKQELVTVNGKVVSNNYNVKLGDTILVNDD | 0.0352
HMTVVHRQVHLQPDQGAFRAALYSHKAVLSEQTDDQGAINLEIRLPESDFLRLLNSSGLKLQDLVP | -0.0198
HMNQNAMIGAHIRNLRLAKKLTLKQLSDESGLSVGFLSQLERGMSSIAIDTLARLAHILGADLSSFF | -0.763
HMTILTSSQRKALISKMIRQGGVESQSHLVKLLAREGVKVTQATASRDLEDLGATRVRDANGEFQYVIP | -0.271
HMQQVIQSGQKVQLMATDGSFQVSAEGVALKNGSVGEVIGVRMPSGRVISGVVSASGAVEVR | 0.146
HMEQRREEFILLAKELLEKELRKQNLEVHENLKPDVLNDVAKRLGMVSMDDLLAAVGDGKITPGTVVSKIV | 0.064
HMRVDLATEVHSVLRRMMSRPPTLQEIRADLDGEEPGRVHEALDALRAAFRGGRGPKNPYESLKRSLRRG | 0.0134
HMANPRLEYFLSNITPDWNEFSPELKNQLLIENADPYKLEQYILQVSPDMYIEEQNAPGTVRQMAGDITG | 0.09
HMTEKSTRSVPQEHEGKRLDVAAALLFPVYSRSELARRIDAGYLLLNGKGSTPKTKVHELDLIELLEV | -0.341
HMQQIEIEEPITVKNLSAVAGLKASEIIAKLMKLGVMSTINQVMERQHAEEIAGEYGFELVVK | 0.096
